In patent EP1728802A2:

Assays:
[1] = target: ErbB3 expressed on 4E9H3 cells (K562 cells stably transfected with erbB3 cDNA) (UniProt P21860); test: Scatchard analysis of competitive 125I-HRG binding to 4E9H3 cells, no antibody
[2] = target: ErbB3 expressed on 4E9H3 cells (K562 cells stably transfected with erbB3 cDNA) (UniProt P21860); test: Scatchard analysis of competitive 125I-HRG binding to 4E9H3 cells, in the presence of 100 nM 3-8D6 IgG
[3] = target: ErbB3 expressed on 4E9H3 cells (K562 cells stably transfected with erbB3 cDNA) (UniProt P21860); test: Scatchard analysis of competitive 125I-HRG binding to 4E9H3 cells, in the presence of 100 nM 3-8D6 Fab

UniProt P21860, sequence (P21860 20-1342 limits assumed): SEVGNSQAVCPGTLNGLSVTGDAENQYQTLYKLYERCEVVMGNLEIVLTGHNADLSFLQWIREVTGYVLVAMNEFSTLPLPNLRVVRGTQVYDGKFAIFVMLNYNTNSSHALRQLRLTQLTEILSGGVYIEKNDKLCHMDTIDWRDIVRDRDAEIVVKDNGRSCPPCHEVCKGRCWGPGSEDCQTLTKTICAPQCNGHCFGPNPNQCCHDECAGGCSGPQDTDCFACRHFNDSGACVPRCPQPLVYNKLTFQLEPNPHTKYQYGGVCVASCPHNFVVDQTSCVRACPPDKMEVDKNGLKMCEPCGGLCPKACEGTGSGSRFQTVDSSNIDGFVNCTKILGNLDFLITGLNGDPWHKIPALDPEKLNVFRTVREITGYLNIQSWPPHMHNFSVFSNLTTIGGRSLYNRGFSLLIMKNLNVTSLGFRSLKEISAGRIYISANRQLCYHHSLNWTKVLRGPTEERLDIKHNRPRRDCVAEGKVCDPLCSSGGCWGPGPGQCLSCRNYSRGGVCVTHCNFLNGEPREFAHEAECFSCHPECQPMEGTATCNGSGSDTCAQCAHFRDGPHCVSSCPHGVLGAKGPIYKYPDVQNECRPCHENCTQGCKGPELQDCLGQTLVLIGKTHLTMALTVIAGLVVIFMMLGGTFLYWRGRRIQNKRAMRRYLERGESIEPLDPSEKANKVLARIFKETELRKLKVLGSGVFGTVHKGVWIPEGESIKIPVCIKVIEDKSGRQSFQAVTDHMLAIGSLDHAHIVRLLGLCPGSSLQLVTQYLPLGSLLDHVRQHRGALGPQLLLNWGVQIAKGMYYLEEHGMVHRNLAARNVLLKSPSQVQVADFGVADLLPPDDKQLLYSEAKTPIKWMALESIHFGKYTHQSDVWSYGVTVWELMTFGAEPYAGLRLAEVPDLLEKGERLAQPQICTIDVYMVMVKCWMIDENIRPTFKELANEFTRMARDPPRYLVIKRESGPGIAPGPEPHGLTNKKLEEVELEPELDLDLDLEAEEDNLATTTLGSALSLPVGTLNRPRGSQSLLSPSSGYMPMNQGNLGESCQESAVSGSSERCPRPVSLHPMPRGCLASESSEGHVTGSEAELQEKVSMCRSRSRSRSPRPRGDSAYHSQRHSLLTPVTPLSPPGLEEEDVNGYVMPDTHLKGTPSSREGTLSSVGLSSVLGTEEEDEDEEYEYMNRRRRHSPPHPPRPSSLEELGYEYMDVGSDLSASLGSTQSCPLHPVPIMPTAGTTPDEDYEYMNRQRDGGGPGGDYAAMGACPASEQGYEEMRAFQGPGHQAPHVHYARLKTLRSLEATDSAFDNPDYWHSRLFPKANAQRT

Kd [1]: 1.2 nM | Sites/Cell [1]: 360000 sites/cell | Kd [2]: 0.21 nM | Sites/Cell [2]: 240000 sites/cell | Kd [3]: 0.28 nM | Sites/Cell [3]: 290000 sites/cell
Substance: HRGβ1(177-244), EGF-like domain of the β1 isoform of heregulin (from UniProt Q02297 177-244) (ligand)
